Legend:
[1] = biological target: T1, HSA (Homo sapiens, UniProt P02768); test: Isothermal Titration calorimetry of SABA1-FGF21 fusion with HSA; assay type: binding; details: 37° C., PBS buffer
Protocol: (§1) The binding competency and thermodynamic characterization of FGF21-SABA fusion variants to human serum albumin were performed using Isothermal Titration calorimetry on a Microcal VP-ITC instrument (Microcal Inc. Amherst Mass., USA). […] The detailed experimental conditions are described below.
(§2) For the calorimetry assay, the FGF21-SABA variant SABA1-FGF21v1 (SEQ ID NO: 132) was used. […] For the SPR studies, SABA1-FGF21v1 and SABA1-FGF21v3 (SEQ ID NO: 134) were examined.
SABA-FGF21 fusion protein plus buffer was placed in the instrument sample cell at a concentration range of 0.4 to 1.0 mg/mL protein. The matching buffer was placed in the reference cell. Concentrations were determined using extinction coefficients calculated from the protein sequences of the pure proteins. The instrument reaction cell was equilibrated at 37° C. […] Data sets obtained were baseline-subtracted and corrected for the heat of dilution of the HSA injected into the cell. The resultant thermogram data was fitted using Origin™ evaluation software package (Microcal Inc.) version 2.0.2 to estimate the stochiometry, enthalpy, and equilibrium disassociation constant (KD) of the protein-protein binding reaction.

[2] = biological target: T1, HSA; test: SPR (Biacore T100) kinetics of FGF21-SABA1 fusions: HSA; assay type: binding; details: flow rate 30 μl/min
Protocol: as §1, §2
(§3) Serum albumins were dissolved in PBS buffer (10 mM sodium phosphate, 130 mM sodium chloride, pH 7.1) to a concentration of 10 mg/ml, and subsequently diluted to 8-10 μg/ml in 10 mM sodium acetate pH 5.0 for immobilization. Serum albumins were immobilized on a Series S CMS sensor chip using standard ethyl(dimethylaminopropyl) carbodiimide (EDC)/N-hydroxysuccinimide (NHS) chemistry in HBS-EP+ running buffer at 25° C., following general manufacturer guidelines. Flow cell 1 was activated with EDC/NHS and blocked with ethanolamine. […] Kinetic experiments were performed in PBS buffer containing 0.05% tween-20 (running buffer) at either 25° C. or 37° C. […] These samples were injected across flow cells 1-4 for 300 s, with a 420 s dissociation time, at flow rates of 30 μl/min or 60 μl/min to check for mass transfer limitation. All surfaces were regenerated with 2 pulses of 10 mM glycine pH 2.0 at 30 μl/min for 30 s. Raw sensograms were “double-referenced” by subtracting flow cell 1 data from flow cell 2, 3 or 4 data, and then subtracting a separate buffer cycle from each sensogram. The double-referenced sensogram data was fitted to a 1:1 Langmuir model using Biacore T100 Evaluation software version 2.0.2 to determine the association rate constant (ka), the dissociation rate constant (kd), and the equilibrium dissociation constant (KD).

[3] = biological target: T2, CySA (Macaca fascicularis, UniProt A2V9Z4); test: SPR (Biacore T100) kinetics of FGF21-SABA1 fusions: CySA; assay type: binding, cynomolgous monkey; details: flow rate 30 μl/min
T2 construct: purchased Equitech-Bio CMSA
T2 sequence (A2V9Z4 25-608): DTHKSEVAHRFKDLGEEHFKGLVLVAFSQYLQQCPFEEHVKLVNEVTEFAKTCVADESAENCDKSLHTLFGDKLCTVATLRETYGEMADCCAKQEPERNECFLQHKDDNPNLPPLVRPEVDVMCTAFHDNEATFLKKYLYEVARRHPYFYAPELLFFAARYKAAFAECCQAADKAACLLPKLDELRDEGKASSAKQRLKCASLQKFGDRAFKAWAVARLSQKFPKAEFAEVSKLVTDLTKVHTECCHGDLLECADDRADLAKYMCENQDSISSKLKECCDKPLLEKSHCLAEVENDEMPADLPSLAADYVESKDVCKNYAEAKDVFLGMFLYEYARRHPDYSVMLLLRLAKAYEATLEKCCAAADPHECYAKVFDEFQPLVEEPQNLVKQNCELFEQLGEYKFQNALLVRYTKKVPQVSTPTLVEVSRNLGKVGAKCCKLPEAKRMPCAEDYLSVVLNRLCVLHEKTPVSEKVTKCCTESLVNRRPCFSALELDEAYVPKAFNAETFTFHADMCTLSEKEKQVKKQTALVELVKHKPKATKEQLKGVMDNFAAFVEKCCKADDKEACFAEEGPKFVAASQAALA
Protocol: as §1, §2, §3

[4] = system: diabetic ob/ob mice; test: Acute and chronic effects of SABA1-FGF21v1 in diabetic ob/ob mice, 3 weeks daily treatment; assay type: in vivo, mouse
Text: Additional acute and chronic effects of SABA1-FGF21v1 were examined in the diabetic ob/ob mice. At study termination after 3 weeks of daily treatment, reductions in plasma glucose, insulin and total cholesterol were observed. Plasma alanine aminotransferase was reduced and β-hydroxybutyrate levels were elevated.

[5] = system: diabetic ob/ob mice; test: HbA1c in diabetic ob/ob mice after 14 days of SABA1-FGF21v1 premixed with HSA; assay type: in vivo, mouse; details: for plasma levels: […] hours after the last dose
Protocol: HbA1c was measured in plasma samples 24 hours after the last dose (see FIG. 19).
SABA1-FGF21v1 plasma levels at the 0.01, 0.1 and 1 mg/kg doses were 3.85, 2.28 and 28.73 ng/ml respectively, 24 hours after the last dose.

[6] = biological target: MuSA (Mus musculus, UniProt P07724); test: SPR (Biacore T100) kinetics of FGF21-SABA1 fusions: MuSA; assay type: binding, murine; design: purchased Sigma A3559; details: flow rate 30 μl/min, up to 1 uM analyte
Sequence of MuSA (P07724 25-608): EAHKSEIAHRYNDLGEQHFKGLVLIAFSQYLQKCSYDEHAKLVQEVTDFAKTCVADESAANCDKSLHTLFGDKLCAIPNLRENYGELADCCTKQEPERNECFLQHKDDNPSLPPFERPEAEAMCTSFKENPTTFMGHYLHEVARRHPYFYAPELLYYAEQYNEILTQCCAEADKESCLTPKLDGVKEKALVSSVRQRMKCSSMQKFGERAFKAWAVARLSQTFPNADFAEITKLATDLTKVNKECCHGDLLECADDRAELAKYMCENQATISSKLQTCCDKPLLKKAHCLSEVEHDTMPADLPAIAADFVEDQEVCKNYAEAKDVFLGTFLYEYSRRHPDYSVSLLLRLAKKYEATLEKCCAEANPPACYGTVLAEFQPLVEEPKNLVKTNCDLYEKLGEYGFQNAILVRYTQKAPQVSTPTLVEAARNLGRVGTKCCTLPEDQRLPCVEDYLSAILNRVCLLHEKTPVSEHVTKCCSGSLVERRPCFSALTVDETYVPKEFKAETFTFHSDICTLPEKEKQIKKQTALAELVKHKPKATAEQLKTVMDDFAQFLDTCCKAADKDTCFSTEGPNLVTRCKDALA
Protocol: as §1, §2, §3

[7] = after 3 weeks of daily treatment

B1: SABA1-FGF21v1: SABA1-FGF21 fusion, SEQ ID NO: 132; 293 aa; DNA SEQ ID NO: 184 (protein)
chain: MGVSDVPRDLEVVAATPTSLLISWHSYYEQNSYYRITYGETGGNSPVQEFTVPYSQTTATISGLKPGVDYTITVYAVYGSKYYYPISINYRTEIEKPSQGSGSGSGSGSGSGSPIPDSSPLLQFGGQVRQRYLYTDDAQQTEAHLEIREDGTVGGAADQSPESLLQLKALKPGVIQILGVKTSRFLCQRPDGALYGSLHFDPEACSFRELLLEDGYNVYQSEAHGLPLHLPGNKSPHRDPAPRGPARFLPLPGLPPALPEPPGILAPQPPDVGSSDPLSMVGPSQGRSPSYAS
B1 was tested, and the “N (stoichiometry) by isothermal titration calorimetry” value [1] was 0.87, the “ka” value ([2]; 25° C.) was 3380 M⁻¹ s⁻¹ and the “kd” value ([2]; 25° C.) was 0.000333 s⁻¹. For the same molecule, the “ka” value ([2]; 37° C.) was 5960 M⁻¹ s⁻¹, the “kd” value ([2]; 37° C.) was 0.00111 s⁻¹ and the “ka” value ([3]; 25° C.) was 3930 M⁻¹ s⁻¹. The “kd” value ([3]; 25° C.) was 0.0047 s⁻¹, the “ka” value ([3]; 37° C.) was 4440 M⁻¹ s⁻¹ and the “kd” value ([3]; 37° C.) was 0.0123 s⁻¹. For the same molecule, the Plasma alanine aminotransferase [4, 7] was “reduced”, the β-hydroxybutyrate levels [4, 7] was “elevated” and the “oral glucose tolerance test” value ([4]; mouse, in vivo, po) was “increased capacity to handle a glucose load”. The “plasma glucose, insulin and total cholesterol” value ([4]; study termination after 3 weeks of daily treatment) was “reductions”, the plasma levels ([5]; 0.01 mg/kg dose) was 3.85 ng/mL and the “decrease in HbA1c compared to baseline” value ([5]; 0.01 mg/kg with HSA 6 mg/kg, s.c. q.d. 14 days) was “no decrease”. For the same molecule, the plasma levels ([5]; 0.1 mg/kg dose) was 2.28 ng/mL, the “decrease in HbA1c compared to baseline” value ([5]; 0.1 mg/kg with HSA 6 mg/kg, s.c. q.d. 14 days, not statistically significant) was 0.39% and the plasma levels ([5]; 1 mg/kg dose) was 28.73 ng/mL. The “decrease in HbA1c with respect to baseline” value ([5]; 1 mg/kg with HSA 6 mg/kg, s.c. q.d. 14 days) was 0.9%, the “vehicle subtracted decrease in HbA1c” value ([5]; 1 mg/kg with HSA 6 mg/kg, s.c. q.d. 14 days, statistically significant) was 0.94% and the “binding to MuSA” value ([6]; 25° C.) was “no binding observed up”. The “binding to MuSA” value ([6]; 37° C.) was “no binding observed up”.

Source: US9540424B2, “Serum albumin binding molecules” (BRISTOL-MYERS SQUIBB COMPANY, priority 2010, dated 2017)
